Measured values published in paper PMC10645074, “Insulin receptor Arg717 and IGF-1 receptor Arg704 play a key role in ligand binding and in receptor activation” (Open Biology, 2023).

Molecular target: T1, 125I-TyrA14 human insulin (human, 125I on TyrA14 (specific activity 2200 Ci/mmol))
T1 construct: insulin A chain, human, cut product of proinsulin; insulin B chain, human, cut product of proinsulin; also called ^125I-HI; HI
Experiment: radioligand binding; saturation binding of the 125I-labelled ligand (0.05-5 nM) to isolated ectodomain-mCherry (300 ng/well) immobilised through its HisTag on 96-well plates by nickel-NTA iBodies with biotin on neutravidin; otherwise as the whole-cell assay; one-site specific binding fit
Settings: both partners purified

B1: isolated ecto-IR-A Arg717Gln conjugated with mCherry (domain or fragment)
chain 1: HLYPGEVCPGMDIRNNLTRLHELENCSVIEGHLQILLMFKTRPEDFRDLSFPKLIMITDYLLLFRVYGLESLKDLFPNLTVIRGSRLFFNYALVIFEMVHLKELGLYNLMNITRGSVRIEKNNELCYLATIDWSRILDSVEDNYIVLNKDDNEECGDICPGTAKGKTNCPATVINGQFVERCWTHSHCQKVCPTICKSHGCTAEGLCCHSECLGNCSQPDDPTKCVACRNFYLDGRCVETCPPPYYHFQDWRCVNFSFCQDLHHKCKNSRRQGCHQYVIHNNKCIPECPSGYTMNSSNLLCTPCLGPCPKVCHLLEGEKTIDSVTSAQELRGCTVINGSLIINIRGGNNLAAELEANLGLIEEISGYLKIRRSYALVSLSFFRKLRLIRGETLEIGNYSFYALDNQNLRQLWDWSKHNLTITQGKLFFHYNPKLCLSEIHKMEEVSGTKGRQERNDIALKTNGDQASCENELLKFSYIRTSFDKILLRWEPYWPPDFRDLLGFMLFYKEAPYQNVTEFDGQDACGSNSWTVVDIDPPLRSNDPKSQNHPGWLMRGLKPWTQYAIFVKTLVTFSDERRTYGAKSDIIYVQTDATNPSVPLDPISVSNSSSQIILKWKPPSDPNGNITHYLVFWERQAEDSELFELDYCLKGLKLPSRTWSPPFESEDSQKHNQSEYEDSAGECCSCPKTDSQILKELEESSFRKTFEDYLHNVVFVPQPS
chain 2: SLGDVGNVTVAVPTVAAFPNTSSTSVPTSPEEHRPFEKVVNKESLVISGLRHFTGYRIELQACNQDTPEERCSVAAYVSARTMPEAKADDIVGPVTHEIFENNVVHLMWQEPKEPNGLIVLYEVSYRRYGDEELHLCVSRKHFALERGCRLRGLSPGNYSVRIRATSLAGNGSWTEPTYFYVTDYLDVPSNIAK
A Kd of 270 pM was found for B1 in this work.
